The record followed here is a protein production outcome set (Wang et al. 2014).

The data set is described as follows: label from the status in PepcDB records.
With “MVKSYQRFEQAAAFGVIASNANCVWIPASSGNSNGSGPGQLITSALEDVNIWDIKTGDLVSKLSDGLPPGASDARGAKPAECTYLEAHKDTDLLAVGYADGVIKVWDLMSKTVLLNFNGHKAAITLLQFDGTGTRLISGSKDSNIIVWDLVGEVGLYKLRSHKDSITGFWCQGEDWLISTSKDGMIKLWDLKTHQCIETHIAHTGECWGLAVKDDLLITTGTDSQVKIWKLDIENDKMGGKLTEMGIFEKQSKQRGLKIEFITNSSDKTSFFYIQNADKTIETFRIRKEEEIARGLKKREKRLKEKGLTEEEIAKSIKESYSSFILHPFQTIRSLYKIKSASWTTVSSSKLELVLTTSSNTIEYYSIPYEKRDPTSPAPLKTHTIELQGQRTDVRSIDISDDNKLLATASNGSLKIWNIKTHKCIRTFECGYALTCKFLPGGLLVILGTRNGELQLFDLASSSLLDTIEDAHDAAIWSLDLTSDGKRLVTGSADKTVKFWDFKVENSLVPGTKNKFLPVLKLHHDTTLELTDDILCVRVSPDDRYLAISLLDNTVKVFFLDSMKFYLSLYGHKLPVLSIDISFDSKMIITSSADKNIKIWGLDFGDCHKSLFAHQDSIMNVKFLPQSHNFFSCSKDAVVKYWDGEKFECIQKLYAHQSEVWALAVATDGGFVVSSSHDHSIRIWEETEDQVFLEEEKEKELEEQYEDTLLTSLEEGNGDDAFKADASGEGVEDEASGVHKQTLESLKAGERLMEALDLGIAEIEGLEAYNRDMKLWQRKKLGEAPIKPQGNAVLIAVNKTPEQYIMDTLLRIRMSQLEDALMVMPFSYVLKFLKFIDTVMQNKTLLHSHLPLICKNLFFIIKFNHKELVSQKNEELKLQINRVKTELRSALKSTEDDLGFNVQGLKFVKQQWNLRHNYEFVDEYDQQEKESNSARKRVFGTVI”, the protein production result is “failed”.
On to “MVDTTILAQALGFISFGLGFSVFYQKNDRHLKILMLIFNLNHLLHFLLLGSMVSALSALLSALRTTTAIFVSSKRVAAVFIVISLVSGFWVAEQWRDLWPIIGTVIGTYSVFCLSGIRMRIGFLLGASCWLTNNILVGSIGGTLLEMTVIVMNLLTIYRLHRQQSESMINQSSY”, for which the protein production entry was “failed”.
The same measure for “MIWLQLVVVLAAIFVGARLGGIGLGVMGGLGLGVLTFVFHLQPTSPPIDVLLMIAAVVTAAGVLQAAGGLDYLVSVAERILRSNPDRITFLGPLVTYVFTLFAGTGHVAYSVLPVISEVARETGVRPERPMSISVIASQQAITASPISAATVALLGMLSTGAAGAAFHIELIDILKVCIPSTLLGVLAAAFVANRMGKDLEEDPEYQDRVARGLAAPTGRQALAAADGGEPVRAAAPVTAKIAVGIFLAAALAVVLFGSFPGMRPQWTTASGVTKLGMPHAIEMVMLSAAALMLMVCRVDVSKVATGSVFGAGVQAVIAIFGIAWMGDTFFAGNMEVLGGSIKGMVTAAPWLFAAALFALSVLLYSQAATVRALMPLGIALGIPAPALMAMFPAVNGYFFIPNYPTIVAAINFDRTGTTRIGRWVLNHSFMVPGLISTVVAIATGLVIVRFMF”: “failed”.
As for “MSLSDDSTFGDATFVVLDFETTGLDPQVDEIIEIGAVKIQGGQIVDEYHTLIKPSREISRKSSEITGITQEMLENKRSIEEVLPEFLGFLEDSIIVAHNANFDYRFLRLWIKKVMGLDWERPYIDTLALAKSLLKLRSYSLDSVVEKLGLGPFRHHRALDDARVTAQVFLRFVEMMKKEGHHHHHH”, the entry is “not failed”; as for “MSIEVPISIPKTLIIIPAYNEEEAIADTLTRLLELKQHFTALSICVINDGSQDKTAQIVKNFPVHLINLPYNLGIGSAVQTGYKYAYENGYDIAIQFDADGQHNPDDLYKIIQPIAEGQCDMVLGSRFTEKTAYKGSISRRIGIFYFTALLKVLTKQTFMDPTSGYRAINREVITIFAHNYPKDYPEPEVLIHLKKKKLRINEISVNMQERQGGQSSITPLKSAYYMIKVSLAILMQKIVKGLEHHHHHH”, “failed”.
Take “MITLAQAEVGKVYTVESVQADIQTKKHLNNLGVVAGQAVVLVNYQNQNGIVLLHNSRIALTDTILQAIHVEERSANEKVWVSLDTLKVGERATIVGIHGQGAVKRRLMDMGLTKGTVIFIRKVAPLADPIEINVRGYELTLRKSEAELILVEKEESELEHHHHHH”: the protein production result is listed as “failed”.
As for “MNTMVELRKLIVFLLSFTFLLYLLYVGINISKKLRIRRSPFFLMISGVGLITLGTFLDAIDKFIDVGIKNVIAACFTFGAILFVVFIIFLSNNFVCTVSLLYEDANMDKMTGAYNRKGINEIFQRSIAKQNSFYLMLFDLDETKRLNDKYGHAVGDKYIIGASAIIKDTIGNKGFVGRIGGDEFIALLKLENEVDVEKIKKLIKDQFCESFKQYGANISIGYSRFKEDGQEFEEIFQIADKNMYDDKKSNKKNKACF”, the entry is “failed”; as for “MKQSLQIWLEAARPKTLPLALVSILTGSVLAYSAGHFSLTIAIMAFATATLLQILSNLANDYGDAVKGTDNENRLGPQRAMQTGAVSAKQMKQAIIFNIVLTAISGLVLVFYALSSPESIITFIGLGILAIIAAIAYTMGSKPYGYVGLGDISVFLFFGLLGVSGTYFLHTGHVDTTLFLPALGCGLLAVAVLNINNMRDIENDRECGKRTVAVRLGQHKAKQYHFILLGGAILAFAAYLLIQDKPLWISLPFLLSVYVVIHHGKAVWDTEKPAQIAPMLPVIVKCSLVTNVLFATIVVAQTLVS”, “failed”; as for “MPKSVRAENISRILKRIMKSPVSRVELAEELGLTKTTVGEIAKIFLEKGIVVEEKDSPKGVGRPTKSLKISPNCAYVLGIEVTRDEIAACLIDASMNILAHEAHPLPSQSDREETLNVMYRIIDRAKDMMEKLGSKLSALTVAAPGPIDTERGIIIDPRNFPLSQIPLANLLKEKYGIEVWVENDADMGAVGEKWYTKRDDSFAWILTGKGIGAGIIIDGELYRGENGYAGEIGYTRVFNGNEYVFLEDVCNENVVLKHVLSMGFSSLAEARDSGDVRVKEYFDDIARYFSIGLLNLIHLFGISKIVIGGFFKELGENFLKKIKIEVETHLLYKHSVDMSFSKVQEPVIAFGAAVHALENYLERVTTS”, “not failed”.
As for “RRENHQTIQEFLERIHLQEYTSTLLLNGYETLDDLKDIKESHLIELNIADPEDRARLLSAAESLL”, the entry is “not failed”; as for “MNHRSVRGICATLGVLLVIGCSGPDAKKAKFYAKGKELYDKGDYAKAALEFKNAIQIDPKYAEAYHMLGLVEMKKGNIKGAFGNFTKAVELNPQHQEARLQLGRIYLGAGAPDEAMKEAVEVLKINPASEDAQLLKGAVLIARKEKGKARELLEGLVAKGVKKPDAYSLLASIHALDGNAKDAEAILRKGLAINPSSSDLHLTLAGLCVGTGRTDEAISLLQRVVSLEPGRTDHRLKLAALCWDTGKVAEARKALTDLVAIAPEKEENRLQAAGFLAGKGEADEAEKLLKEGIAGKGKNYKLRFALADLYLNTGKGDQAVTLLTETAGLDKASRQESLQAKNALAQIALDRNRVDEAVKLVTEVLKESPKNTDARFLKGNIHMMKGEGAQAVAEYRTVVTDNPQSVPGFIRLAEAHLLNREKNLAFDNLQNALKIDPENRDALVALARYHVMQKDMKNAEAALRKVLAKSPNDLEAKAELGDLFLAAGDLKRAEAEYGELKRKAPGLPVGYVKMGDIYLHRGKSDKALAELEQAVRLNPSSELLAGSLARLYTRLGKFDKAEFLLDQRLKQNPNDAASYTLLGQMNVARNQYGKARQAYEKALSLNGSNWSAANDLAFLLAETGSGADLDRALTLIEKVKQSRPDDPRVLDTVGWIYYKKGNAGKAVEILSQVHRKTGDSPVIDYHLGMASYKAGDKARAKELLTKAMTSKSGFAGREEAVKTLGIIKG”, “failed”; as for “MNSFYSQEELKKIGFLSVGKNVLISKKASIYNPGVISVGNNVRIDDFCILSGKVTIGSYSHIAAYTALYGGEVGIEMYDFANISSRTIVYAAIDDFSGNALMGPTIPNQYKNVKTGKVILKKHVIIGAHSIIFPNVVIGEGVAVGAMSMVKESLDDWYIYVGVPVRKIKARKRKIVELENEFLKSMNSLEHHHHHH”, “failed”.
The same measure for “MAASQTPARILVTGVAGNLGRKVVEALASTPWCTSIIGVDWVEQSMQFSPQAAQRLRWVVADLTQADGAWTALLDEVDAVIHLAAIHSTPDATWEQALASYGMTLNVLQAAATRGVRRFVFASSNHAMGAYKDQPLAGTIGPGRLIAELAPAPGTRWHNGIEEVYSLAYGTSKAMGERLCKAVAAVSGGRLSVVALRIGWALPDDNDPNDINHSGTADTPVPGSVPDEASRIALRWFRNMWLSNDDLRQLFIAAVTADPARWPAPAIVVNGVSNNTGMDWGLETGRALIGYEPQDDLYARLTQPA”: “failed”.
For the sequence “MRAILILLDGLGDRASEILNNKTPLQFAKTPNLDRLAENGMCGLMTTYKEGIPLGTEVAHFLLWGYSLEEFPGRGVIEALGEDIEIEKNAIYLRASLGFVKKDEKGFLVIDRRTKDISREEIEKLVDSLPTCVDGYKFELFYSFDVHFILKIKERNGWISDKISDSDPFYKNRYVMKVKAIRELCKSEVEYSKAKDTARALNKYLLNVYKILQNHKINRKRRKLEKMPANFLLTKWASRYKRVESFKEKWGMNAVILAESSLFKGLAKFLGMDFIKIESFEEGIDLIPELDYDFIHLHTKETDEAAHTKNPLNKVKVIEKIDKLIGNLKLREDDLLIITADHSTPSVGNLIHSGESVPILFYGKNVRVDNVKEFNEISCSNGHLRIRGEELMHLILNYTDRALLYGLRSGDRLRYYIPKDDEIDLLEG”, the protein production result is given as “failed”.
The same measure for “MTNAEAVTVTNKQIIFPDYVTGFPKESDLKITTTTIDLRLPEGSTSVLVKNLYLSCDPYMRICMGKPDPLSSSLVPPYKTGVPIIGLGVSKVIDSGHPDYKKGDLLWGLVGWEEYSVITLTTYSHFKIEHTDVPLSYYTGLLGMPGMTAYAGFYEVCSPKKGETVFVSAASGAVGQLVGQFAKLMGCYVVGSAGSKEKVYLLKTKFGFDDAFNYKEEKDFSAALKRYFPEGIDIYFENVGGKMLDAVLINMKLHGRVAVCGMISQYNLVDPEGVHNLPTILYKRIQLQGFGVCDFYDKYPKFLDFVLPYIREGKITYVEDIAEGFESGPSALLGLFEGKNVGKQLFVVARE”: “failed”; for “MSSPSLSPHYQKMLDDLDGQVLQLDRQVFRRLARLGYQPQVIFDVGASNSGWSYYIKQVVTEADFYLFEPLVDHVPDYQGLMEETLRVYPSFHLYKYALGDRDGTITVNVFDDPASSTTLPMTEGGPSINAVQVPLLTLDSALVKLGLPQPQVIKIDTQGNELSILRGAAQTLAKVDVLFLECWLYRGYGPKTPLLTEIAHWLLPFNFRLWDVSEPYRGPQGELTTLDCIFINTAAGLVPNWYY”: “failed”; for “MTKAREFLGTGWKFPVAAGADGAMVLSSAEEDIAESIRIILGTARGERVMRPDFGCGIHDRVFSVINTTTLGLIENEVKEALILWEPRIELLSVTASPREAAEGRLLIDIEYRVRSTNTRFNLVYPFYLKESA”: “not failed”.
“MTGPTPTEAVDITVSVGGFKVGDQNYPINPKITFTNNTGQAIPGGTEFQFDIPVSAPDNAKDQSGGGLKVIASGHTRANNIGGLDGVMHRVSFSLPAWKDLPAGGTYELDMVYYLPISGPANYSVISGGKEFAFKFEQPDLPIGDLNAGTGGGGTTEPGSCDTAGLVTYPNLPQTDLEHHHHHH”: the protein production entry was “failed”.
The same measure for “MTVQRREKGSSITRVLEIIEAISRAERPMSPAELAFLLDIPKPSIHRLLQQLEADNYVQINMRGLLVPGDRMHSIALGVLHSSRFKALRQAILKKLAETIGETCGIAIPDGIEMIYYDRVQTNWPLRVNLPVGSHTPVACTASGKLYLSSLPKERRHRIIGKLSLEKLARNTLIESESLEKELINIQANELGTDNEEFIDGMVACSVPIKDQDGKLFACLFTHAPVIRKSLDELLAFEPALRHAAIELGDLLKEQ”: “failed”; for “EPLTIREYRPEDLEALLPLYEQLGYPTRTDELRDRLAGLLSHEDYHLLVAECDGQLVAFIGYARMYFFEHDGSYYRILALAVS”: “failed”.
